Data taken from paper PMC6628914 (Frontiers in Immunology, 2019).

Molecular target: T1, HIV-1 JRFL envelope (Env, gp120-gp41) on HIV-1 JRFL pseudovirions (HIV-1 JR-FL, UniProt Q75760, strain)
T1 construct: also called HIV-1 JRFL virions; tier-2 JRFL pseudovirus; copies: 3 + 3
Experiment: FRET or BRET + other: fluorescence correlation spectroscopy (FRET-FCS); all reactants in solution; donor (Alexa 488) and acceptor (Alexa 568) labelled Fabs with virions at 10 μg/ml (about 1.5 virions in the 1 fL focal volume); FRET bursts and diffusion coefficient of the acceptor channel (6 μm^2/s for virion-bound Fab)
Conditions: one partner purified

B1: 2G12 Fab, Alexa 488- or Alexa 568-labelled (Fab, V domains shown)
VH: EVQLVESGGGLVKAGGSLILSCGVSNFRISAHTMNWVRRVPGGGLEWVASISTSSTYRDYADAVKGRFTVSRDDLEDFVYLQMHKMRVEDTAIYYCARKGSDRLSDNDPFDAWGPGTVVTVSP
VL: DVVMTQSPSTLSASVGDTITITCRASQSIETWLAWYQQKPGKAPKLLIYKASTLKTGVPSRFSGSGSGTEFTLTISGLQFDDFATYHCQHYAGYSATFGQGTRVEIK
binding result: binds
